Source: patent US20190144556A1 (published 2019)

Key:
recombinant human TNFR2 = molecular target: T1, recombinant human TNFR2 (human, UniProt P20333 23-257, limits assumed); test: SPR (BIACORE 3000), biotinylated antibody captured on streptavidin, recombinant human TNFR2 injected
T1 construct: also called tumor necrosis factor receptor 2; full-length target protein
T1 sequence: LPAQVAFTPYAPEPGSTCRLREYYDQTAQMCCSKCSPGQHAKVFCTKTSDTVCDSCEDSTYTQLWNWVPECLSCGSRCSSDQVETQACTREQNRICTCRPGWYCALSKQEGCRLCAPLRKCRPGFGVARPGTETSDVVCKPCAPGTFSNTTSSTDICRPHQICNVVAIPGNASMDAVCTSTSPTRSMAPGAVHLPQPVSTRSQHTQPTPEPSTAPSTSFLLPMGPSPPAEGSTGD
Procedure: The affinities of antagonistic TNFR2 antibodies for recombinant human TNFR2 were measured using BIACORE™ Analysis Services (Precision Antibody). Briefly, the antibody was biotinylated at a 5:1 stoichiometric ratio using biotinyl-LC-LC-[…] (Thermo-Fisher) in PBS. Excess biotinylation reagent was removed by centrifugation chromatography and the biotinylated antibody was captured on 3000 RU of streptavidin surface to a level of 100 RU. […] Analysis of the kinetics of antigen binding was performed at a flow of 60 μL/min with 2 min injections. Antibodies were injected at a concentration of 1 mg/ml to the final capture of 100 RU. The instrument used was BIACORE™ 3000 with the BioCap chip (GE Healthcare). Double reference method was used for analysis. Reference channel contained the identical level of streptavidin.

[1] = molecular target: T2, peptide fragment defined by residues 130-149 of SEQ ID NO: 7 within human TNFR2 (KQEGCRLCAPLRKCRPGFGV) (human); test: peptide binding; assay not given
T2 peptide: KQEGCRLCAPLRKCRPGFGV

[2] = molecular target: T3, linear peptide containing amino acids 112-139 of SEQ ID NO: 7 within human TNFR2 (human); test: ELISA, linear peptide coated at 1 µg/well, antibody 0.1 µg/well
T3 construct: Linear peptide purchased from GenScript and coated on the plate
T3 peptide: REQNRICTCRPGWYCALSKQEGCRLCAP
Procedure: (§1) ELISA was also used to determine linear epitopes present on the extracellular surface of TNFR2. Linear peptides corresponding to various regions within the TNFR2 primary sequence were purchased from GenScript (Piscataway, N.J.), diluted in coating buffer and placed on Immulon 4HBX Flat Bottom Microtiter Plates (Thermo Scientific) at a concentration of 1 μg/well. Primary TNFR2 antagonistic antibodies (0.1 μg/well) were incubated with substrates. Secondary antibodies against rodent IgG were used to detect the primary antibodies. Absorbance was measured using the SPECTRAMAX® 190 Absorbance Plate Reader and analyzed with SoftMax Pro 6.3 (Molecular Devices).

[3] = molecular target: T4, linear peptide containing amino acids 128-155 of SEQ ID NO: 7 within human TNFR2 (human); test: as above
T4 construct: Linear peptide purchased from GenScript and coated on the plate
T4 peptide: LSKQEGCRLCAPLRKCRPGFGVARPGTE
Procedure: as §1

B1: antagonistic TNFR2 antibody TNFRAB1 (antibody, V domains shown)
VH: EVQLQESGGGLVKPGGSLKLSCAASGFTFSSYVMSWVRQTPEKRLEWVATISSGGSYTYYPDSVKGRFTISRDNAKNTLYLQMSSLRSEDTAMYYCARQRVDGYSSYWYFDVWGAGTAVTVSS
VL: DIVLTQSPAIMSASPGEKVTITCSASSSVYYMYWFQQKPGTSPKLWIYSTSNLASGVPVRFSGSGSGTSYSLTISRMEAEDAATYYCQQRRNYPYTFGGGTKLEIKR
notes: Murine monoclonal antibody, full-length IgG; For SPR the antibody was biotinylated and captured on streptavidin; also called TNFR2 antagonist 1
Recombinant human TNFR2
  Kd: ~44.4 pM
  koff: 0.000221 s⁻¹
  kon: 4.98e+06 M⁻¹ s⁻¹
[1]
  fold greater affinity than for the peptide fragment defined by residues 48-67 of SEQ ID NO: 7 (…, SEQ ID NO: 18): 40 fold
[2]
  binding result: binds
[3]
  binding result: binds
